Patent publication US20210253725A1 (BIONTECH, published 2021)

T1: CD134 protein (His-tagged, Sino Biological Inc. 10481-H08H) (human, UniProt P43489 29-216)
T1 construct: bought protein coated on ELISA plates; also called OX40; TNFRSF4; not shown: His tag
T1 sequence (looked up): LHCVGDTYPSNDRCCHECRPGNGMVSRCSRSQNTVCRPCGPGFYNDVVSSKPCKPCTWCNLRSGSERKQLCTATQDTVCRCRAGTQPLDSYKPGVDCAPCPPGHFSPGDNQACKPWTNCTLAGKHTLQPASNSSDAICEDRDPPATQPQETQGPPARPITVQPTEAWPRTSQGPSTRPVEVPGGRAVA

T2: CD134 expressed on the cell surface of HT1080_OX40 cells (human, UniProt P43489 29-277)
T2 sequence (looked up): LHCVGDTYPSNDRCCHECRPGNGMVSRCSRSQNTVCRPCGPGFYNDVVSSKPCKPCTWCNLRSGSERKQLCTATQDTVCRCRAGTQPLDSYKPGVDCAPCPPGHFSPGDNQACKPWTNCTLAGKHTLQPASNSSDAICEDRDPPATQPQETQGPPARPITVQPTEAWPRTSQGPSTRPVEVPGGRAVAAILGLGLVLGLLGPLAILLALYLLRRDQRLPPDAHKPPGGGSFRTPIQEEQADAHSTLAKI


What was measured:
[1] = biological target: T1, CD134 protein (His-tagged, Sino …); test: ELISA, coated His-tagged CD134
[2] = biological target: T2, CD134 expressed on the cell surface of …; test: cell-based or functional assay
[3] = biological target: T2, CD134 expressed on the cell surface of …; test: HT1080_OX40 cells, imaging
[4] = biological target: T2, CD134 expressed on the cell surface of …; test: cell-based or functional assay; remark: listed apart in the source

Binder	ELISA [abs. corr.] [1] [abs. corr.]	EC 50 (IL-8 release, cross-linked) [2] [mg/L]	Cellular binding assay [RFU] [3] [RFU]	Functional assay Cross-linked by F(ab′)2 fragment IL-8 [4] [abs. corr.]	Functional assay IL-8 [4] [abs. corr.]
P018.S.04.A.F06 (antibody, V domains shown, V regions on human Ig constant parts; also called AB134_13) VH: QSVEESGGRLVTPGTPLTLTCTVSGIDLSSSAMSWVRQAPGKGLEWIGIIGYNDFTYYANWAKGRFTISKTSTTVDLKMTSPTTEDTATYFCARGGSSSYSDYVFDPWGPGTLVTVSS VL: AFEMTQTPSSVSEPVGGTVTIKCQASQSIYSNLAWYQQKPGQRPKLLIYDASDLASGVPSRFSGSGYGTEFTLTISDLESADAATYYCQSYYGISSYGVAFGGGTEVVVK	2.36	0.44	402	2.21	2.07
P018.S.11.A.C03 (antibody, V domains shown, V regions on human Ig constant parts; also called AB134_28) VH: QSVEESGGRLVTPGTPLTLTCKVSGFSLSTYDMIWVRQAPAKGLEYIGIIGGSGFTYYANWAKGRFTISKTSTTVDLKITSPTTEDTATYFCARNNYDMWGPGTLVTVSS VL: DVVMTQTPASVSEPVGGTVTIKCQASQSISNELAWHQQKPGQRPNLLIYGASTLESGVPSRFKGSRSGTEYTLTISDLESDDAATYYCQCTYYGSSYVGGAFGGGTEVVVK	1.53	0.217	507	2.19	0.586
P018.S.04.A.B06 (antibody, V domains shown, V regions on human Ig constant parts; also called AB134_7) VH: QSVEESGGRLVTPGTFLTLTCTVSGFSLSSYAMNWVRQSPGKGLEWIGIIYSDDIAYYASWAKGRFTISKTSTTVTLKMTSLTVADTATYFCARGDGDRSIWSFDLWGPGTLVTVSS VL: AQVLTQTPSPVSAAVGGTVTISCQSSESVWNNNWLAWYQQKPGQPPNLLIYEASTLASGVSSRFKGSGSGTQFTLTVSEVQSDDAATYYCQGGYYDSSPIWTFGGGTEVVVK	2.64	0.461	482	2.27	1.82
P018.S.05.A.G05 (antibody, V domains shown, V regions on human Ig constant parts; also called AB134_18) VH: QSVEESGGRLVTPGTPLTLTCTVSGIDLSNHGMGWFRQGPGKGLEWIGIIYIDGGASYASWVNGRFTISKTSTTVDLKITSPTTEDTATYFCARGIPSDGDSSYYYFNLWGQGTLVTVAS VL: DVVMTQTPASVEAAVGGTVTIKCQASQSVYNKYLSWFQQKPGQPPKLLIYRASTLESGVSSRFKGSGSGTEFTLTISDLESADAATYYCQNNNGAGDNTDYTFGGGTEVVVK	2.62	0.975	463	2.39	2.62
P018.S.04.A.H05 (antibody, V domains shown, V regions on human Ig constant parts; also called AB134_15) VH: QSVEESGGRLVTPGTPLTLTCTVSGFSLSSYAMGWVRQAPGKGLEWIGWINTAGGTDYTSWAKGRFTISKTSTTVDLKVTSLTTEDTATYFCARYDYYYFDLWGQGTLVTVSS VL: AQVLTQTASSVSAAVGGTVTISCQSSQSVYDNNWLAWYQQKPGQPPKLLIYSASTLASGVPSRFKGSGSGTEFTLTISDLESDDAAAYYCHGVYSGSIHAFGGGTEVVVI	2.97	1.17	451	2.39	0.356
P018.S.04.A.F05 (antibody, V domains shown, V regions on human Ig constant parts; also called AB134_12) VH: QSVEESGGRLVTPGTPLTLTCTVSGIDLSSYTMGWVRQAPGKGLEYIGIIGTSGTTYYSSWAKGRFTISKTSTTVDLKITSPTTEDTATYFCARLGDDYGDFHFNLWGQGTLVTVSS VL: DLVMTQTPASVSEPVGGTVTIKCQASQNIGNYLAWYQQKPGQPPKLLIYAASNLASGVSSRFKGSGSGTEYTLTISDLESADAATYYCQCTYYDSTYFAFGGGTEVVVK	2.44	0.225	368	2.4	0.181
P018.S.04.A.D06 (antibody, V domains shown, V regions on human Ig constant parts; also called AB134_9) VH: QSLEESGGDLVKPGASLTLTCTASGFSFSSSYYMCWVRQAPGKGLEWIACIYTGDGASYYASWAKGRFTISKPSSTTVTLQVTSLTAADTATYFCGRGEYDNDWGFGLWGPGTLVTVSS VL: AYDMTQTPASVEVPVGGTVTINCQASEDISSYLSWYQQKPGQPPELLIYYASNLASGVSSRFKGSRSGTEFTLTISDLESADAATYYCQCSNYGGSWTFGGGTEVVVK	2.49	0.355	510	2.3	1.01
P018.S.11.A.C04 (antibody, V domains shown, V regions on human Ig constant parts; also called AB134_29) VH: QSVEESGGRLVTPGTPLTLTCTVSGFSLGSYPMIWVRQAPGKGLEWIGYIDPGRGTTLYASWARGLFTISKTSTTVDLAMTSPTAADTATYFCARSYPGDGAGDLWGQGTLVTVSS VL: DVVMTQTPASVSEPVGGTVTIKCQASESISNYFSWYQQKPGQPPKLLIYGASTLESGVSSRFKGSGSGTDFTLTISDLESADAATYYCQCTYYGSGDVGGAFGGGTEVVVK	1.96	0.785	406	2.19	0.253
P018.S.04.A.A06 (antibody, V domains shown, V regions on human Ig constant parts; also called AB134_5) VH: QSLEESGGRLVTPGTPLTLTCTVSGFSLHNYNIQWVRQAPGKGLEWIGWILTDGSPYCANWAKGRFTISKTSTTVDLKITSPTIEDTATYFCARMGDYNINGLWGPGTLVTVSS VL: AQVLTQTPSSVSAAVGGTVTINCQSSQRIYNNDFLSWYQQKPGQPPKLLIYAASTLASGVPSRFKGSGSGTQFTLTISDLESDDAATYYCQGGYSSSGWYLPFGGGTEVVVK	2.85	0.63	486	2.21	0.879
P018.S.12.A.D06 (antibody, V domains shown, V regions on human Ig constant parts; also called AB134_71) VH: QSVEESGGRLVTPGTPLTLTCTVSGFSLSSYDMSWVRQAPGKGLEWIGIIYVSGTTDYASWAKGRFTISKTSTTVDLKMTSLTTEDTATYFCARDIYVDEIGCFDLWGQGTLVTVSS VL: DILMTQTPASVEVAVGGTVTIKCQASQNIRTYLAWYQQKPGQPPKLLIYRASTLESGVPSRFKGSGSGIEFSLTISDLESADAATYYCQNYDGGSSTGFGGGTEVVVK	0.865	2.77	180	2.17	0.832
P018.S.12.A.F05 (antibody, V domains shown, V regions on human Ig constant parts; also called AB134_81) VH: QSLEESGGGLVQPGGSLKLSCKASGIDFSSYGVSWVRQAPGKGLEWIAYTYPDYGSTDYASWVNGRFTISLDNAQNTVFLQMTSLTAADTATYFCASSSNGWGGGFYFDLWGPGTLVTVSS VL: ALVMTQTPSPVSAAVGGTVTINCQASEDIYSNLAWFQQKPGQPPKLLIYGASTLASGVPSRFSGSGSGTEFTLTINDLKSDDAATYYCLGVYTYITTDPNAFGGGTEVVVK	2.12	0.733	511	2.17	0.341
P018.S.11.A.A05 (antibody, V domains shown, V regions on human Ig constant parts; also called AB134_22) VH: QSVEESGGRLVTPGTPLTLTCTVSGFSLNSYDMSWVRQAPGKGLEWIGFISASGSIYFANWAKGRFTISKTSTTVDLKITSPTTEDTATYFCASDSYGWAYVYYFNLWGPGTLVTVSS VL: AVVLTQTPASVSAAVGGTVTINCRASEDIGSYLGWYQQKPGQPPKLLMHDASDLASGVPSRFSGSGSGTEFTLTISGVQSDDAATYYCQSAWYSSGTDKMAFGGGTEVVVK	1.9	0.865	550	2.15	0.26
P018.S.12.A.E04 (antibody, V domains shown, V regions on human Ig constant parts; also called AB134_75) VH: QSVEESGGRLVTPGTPLTLTCTVSGFSLNSYDMSWVRQAPGKGLEWIGFISASGSIYFANWAKGRFTISKTSTTVDLKITSPTTEDTATYFCASDSYGWAYVYYFNLWGPGTLVTVSS VL: AVVLTQTPASVSAAVGGTVTINCRASEDVGSYLGWYQQRAGQPPKLLMHDASDLASGVPSRFSGSGSGTEFTLTISGVQSDDAATYYCQSAWLGTNTDKMAFGGGTEVVVK	2.21	1.01	659	2.23	0.455
P018.S.04.A.E06 (antibody, V domains shown, V regions on human Ig constant parts; also called AB134_11) VH: QSVEESGGRLVTPGTPLTLTCTVSGFSLSGYDMSWVRQAPGKGLEWIGYIYAGSTYYANWAKGRFTISKTSTTVDLKMTSPTTEDTATYFCTRVGAGYSGVWAYFNLWGPGTLVTVSS VL: AQVLTQTPSSVSAAVGGTVTINCQSSQSVDSDNYLAWYQQKPGQPPKLLIYDASKLASGVPSRFTGSGSGTQFTLTISGVQSDDAATYYCQGTYGNIGWYFAFGGGTEVVVK	0.206	1.39	140	2.38	0.135
